Tests used:
hnRNP-K (GST fusion) [1] = molecular target: T1, hnRNP-K (GST fusion) (Homo sapiens, UniProt P61978 SEQ:1-463); assay: competition; unrelated competitor oligonucleotide; outcome not explicitly described in text; settings: tags: N-terminal GST fusion, expressed in E. coli XL-2 (construct from D. Levens)
Protocol: (§1) Binding reactions containing GST/hnRNP-K were performed in the absence (GST-K) or presence (+) of a 100 fold molar excess of unlabeled CD43 PyRo SS, the presence of Mut-11 (Mut) representing a mutant version of CD43 PyRo SS which fails to support PyRol binding Farokhzad et al., (2000) Nucleic Acids Research, 28:2256-2267) or the presence of an unrelated oligonucleotide (NS). The free probe and probe bound by the GST/hnRNP-K protein (GST:hnRNP-K) are arrowed.

hnRNP-K (GST fusion) [2] = molecular target: T1, hnRNP-K (GST fusion); assay: competition; 100-fold excess fails to compete n1 binding; settings: tags: N-terminal GST fusion, expressed in E. coli XL-2 (construct from D. Levens)
Protocol: as §1

hnRNP-K (GST fusion) [3] = molecular target: T1, hnRNP-K (GST fusion); assay: EMSA; 70 mM KCl, 5 mM NaCl, 20 mM Tris pH 7.5, poly(dI-dC), 4 C; competed by 100-fold unlabeled self; settings: tags: N-terminal GST fusion, expressed in E. coli XL-2 (construct from D. Levens); label: 32P 5'
Protocol: as §1

GAGTTAGCTCACTCATTAGG (ssDNA) [NS-SS]
binding result (hnRNP-K (GST fusion) [1]): no binding

GGGCCCACTTCCTTCATATATG (ssDNA) [CD43 Mut-11]
binding result (hnRNP-K (GST fusion) [2]): no binding

GGGCCCACTTCCTTTCCCCTTG (ssDNA) [CD43 PyRo SS]
binding result (hnRNP-K (GST fusion) [3]): binds
